Measured values as given in PMC3940976 (Scientific Reports, 2014).

B1: His6-tagged Sly1p (natural protein)
chain: MAVEEIASRKDISLRDMQISAILKMLFLNKDLNNNDNITTITDDIFNQQEIIWKVLILDIKSTATISSVLRVNDLLKAGITVHSLIKQDRSPLPDVPAIYFVSPTKENIDIIVNDLKSDKYSEFYINFTSSLPRNLLEDLAQQVSITGKSDKIKQVYDQYLDFIVTEPELFSLEISNAYLTLNDPKTTEEEITGLCANIADGLFNTVLTINSIPIIRAAKGGPAEIIAEKLGTKLRDFVINTNSSSTSTLQGNDSLERGVLIILDRNIDFASMFSHSWIYQCMVFDIFKLSRNTVTIPLESKENGTDNTTAKPLATKKYDIEPNDFFWMENSHLPFPEAAENVEAALNTYKEEAAEITRKTGVTNISDLDPNSNNDTVQIQEVVKKLPELTAKKNTIDTHMNIFAALLSQLESKSLDTFFEVEQDPGSTKTRSRFLDILKDGKTNNLEDKLRSFIVLYLTSTTGLPKDFVQNVENYFKENDYDINALKYVYKLREFMQLSNMSLQNKSLEDGSDSAFKPSNLTLSGIYGLTEGKLQGGVGSLISGIKKLLPEKKTIPITNVVDAIMDPLNSSQKNLETTDSYLYIDPKITRGSHTRKPKRQSYNKSLVFVVGGGNYLEYQNLQEWAHSQLHNPKKVMYGSTAITTPAEFLNEISRLGASNSSNNDA
B2: intra-Golgi 3Q-SNARE set Sed5p/Gos1p/Sft1p reconstituted on proteoliposomes (complex)
chain 1: MNIKDRTSEFQQSVLSYKKRNKNFREQQRERLQEKESENFANNTTGNGKSVSEFQKKASGIAHEISSTAQLLSKLAVLAKRKPMFNDNPVEIAELSFLIKRKIYAIEQSLVQLSQLKKTDVNGNTSNQSSKQPSAVQHSKNVVNLLNTQMKNISGSFKDVLEERQRLEMANKDRWQKLTTDTGHAPADDQTQSNHAADLTTYNNSNPFMTSLLDESSEKNNNSSNQGELSFPQNDSQLMLMEEGQLSNNVYLQERNRAVETIESTIQEVGNLFQQLASMVQEQGEVIQRIDANVDDIDLNISGAQRELLKYFDRIKSNRWLAAKVFFIIFVFFVIWVLVN
chain 2: MSSQPSFVTIRGKAISLETQTESLLSKYSTFAQTTSSEQTGQEKKIDKQLEGILGQRQDVIDSLTQICDSNPAISASKLSQLHRHKEILQDHWKSFRNIRSSIQQERNRLNLLFSVKNDIANSTTDAPAPIGDADEYIQNETRRIDQSNNVVDRLISQAWETRSQFHSQSNVLNTANNKVLQTLQRIPGVNQLIMKINTRRKKNAFVLATITTLCILFLFFTW
chain 3: MSNSRYSQTESNNDRKLEGLANKLATFRNINQEIGDRAVSDSSVINQMTDSLGSMFTDIKNSSSRLTRSLKAGNSIWRMVGLALLIFFILYTLFKLF
B3: mixed 3Q-SNARE set Sed5p/Vti1p/Tlg1p reconstituted on proteoliposomes (complex)
chain 1: B2 chain 1
chain 2: MSSLLISYESDFKTTLEQAKASLAEAPSQPLSQRNTTLKHVEQQQDELFDLLDQMDVEVNNSIGDASERATYKAKLREWKKTIQSDIKRPLQSLVDSGDRDRLFGDLNASNIDDDQRQQLLSNHAILQKSGDRLKDASRIANETEGIGSQIMMDLRSQRETLENARQTLFQADSYVDKSIKTLKTMTRRLVANKFISYAIIAVLILLILLVLFSKFK
chain 3: […]

Experiments:
[1] = target: T1, pre-assembled ER-Golgi cis-QabcR-SNARE complex GST-Sec22p/Sed5p/Bos1p/Bet1p (S. cerevisiae, UniProt P22214;Q01590;P25385;P22804); assay: pull-down
T1 sequence 1: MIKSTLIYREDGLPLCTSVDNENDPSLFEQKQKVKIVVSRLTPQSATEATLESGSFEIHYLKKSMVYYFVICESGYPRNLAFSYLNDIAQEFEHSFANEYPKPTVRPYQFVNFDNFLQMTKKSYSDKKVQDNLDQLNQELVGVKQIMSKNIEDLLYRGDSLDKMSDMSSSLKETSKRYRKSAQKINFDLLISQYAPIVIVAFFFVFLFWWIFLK
T1 sequence 2: B2 chain 1
T1 sequence 3: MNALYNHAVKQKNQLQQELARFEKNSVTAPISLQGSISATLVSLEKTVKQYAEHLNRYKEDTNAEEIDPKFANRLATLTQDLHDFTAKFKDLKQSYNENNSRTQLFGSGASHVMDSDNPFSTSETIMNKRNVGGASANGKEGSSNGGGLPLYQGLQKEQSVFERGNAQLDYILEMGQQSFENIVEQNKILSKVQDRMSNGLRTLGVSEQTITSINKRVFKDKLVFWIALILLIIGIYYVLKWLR
T1 sequence 4: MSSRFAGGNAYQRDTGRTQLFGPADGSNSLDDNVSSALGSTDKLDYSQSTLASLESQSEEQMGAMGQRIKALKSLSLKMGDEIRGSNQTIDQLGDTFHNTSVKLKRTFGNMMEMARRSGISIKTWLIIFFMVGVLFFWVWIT

[2] = target: T2, pre-assembled intra-Golgi cis-QabcR-SNARE complex GST-Sec22p/Sed5p/Gos1p/Sft1p (S. cerevisiae, UniProt P22214;Q01590;P38736;P43682); assay: pull-down
T2 sequence 1: T1 sequence 1
T2 sequence 2: B2 chain 1
T2 sequence 3: B2 chain 2
T2 sequence 4: B2 chain 3

[3] = target: T3, ER-Golgi 3Q-SNARE set Sed5p/Bos1p/Bet1p reconstituted on proteoliposomes (S. cerevisiae, UniProt Q01590;P25385;P22804); assay: co-sedimentation
T3 sequence 1: B2 chain 1
T3 sequence 2: T1 sequence 3
T3 sequence 3: T1 sequence 4

[4] = target: T4, mixed 3Q-SNARE set Sed5p/Gos1p/Bet1p reconstituted on proteoliposomes (S. cerevisiae, UniProt Q01590;P38736;P22804); assay: co-sedimentation
T4 sequence 1: B2 chain 1
T4 sequence 2: B2 chain 2
T4 sequence 3: T1 sequence 4

[5] = target: mixed 3Q-SNARE set Sed5p/Vti1p/Bet1p reconstituted on proteoliposomes (S. cerevisiae, UniProt Q01590;Q04338;P22804); assay: co-sedimentation
[6] = target: mixed 3Q-SNARE set Sed5p/Vti1p/Vam7p reconstituted on proteoliposomes (S. cerevisiae, UniProt Q01590;Q04338;P32912); assay: co-sedimentation
Sequence of mixed 3Q-SNARE set Sed5p/Vti1p/Vam7p reconstituted on proteoliposomes (P32912 whole entry, one chain of several): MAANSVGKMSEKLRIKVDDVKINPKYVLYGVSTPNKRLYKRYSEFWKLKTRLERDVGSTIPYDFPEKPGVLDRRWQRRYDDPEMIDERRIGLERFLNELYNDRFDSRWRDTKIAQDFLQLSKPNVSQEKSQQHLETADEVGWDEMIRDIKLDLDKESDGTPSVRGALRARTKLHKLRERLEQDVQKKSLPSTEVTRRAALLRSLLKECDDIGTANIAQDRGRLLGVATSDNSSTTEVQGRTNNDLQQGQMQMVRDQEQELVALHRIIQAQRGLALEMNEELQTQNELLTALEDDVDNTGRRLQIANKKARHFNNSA

His6-tagged Sly1p = target: B1; assay: co-sedimentation

| Binder | binding result [1] | binding result [2] | binding result [3] | binding result [4] | binding result [5] | binding result [6] | binding result (His6-tagged Sly1p) |
| --- | --- | --- | --- | --- | --- | --- | --- |
| B1 | binds | binds | binds | binds | binds | binds | – |
| B2 | – | – | – | – | – | – | binds |
| B3 | – | – | – | – | – | – | binds |
